Assay [1] deals with extracellular matrix of whole cell primary chondrocyte cultures. Put plainly: fluorescent peptide binding to extracellular matrix of hypertrophic chondrocyte monolayer cultures, reference scrambled peptide.
For assay [2], the target named is resting cartilage tissue extract. Put plainly: fluorescent peptide (100 nM) binding to plate-dried cartilage CHAPS extract, reference scrambled peptide.
Assay [3] concerns the target hypertrophic cartilage tissue extract. The description is as above.

2 molecules from patent US20120088722A1 can be followed below.

Ends that are not written are not given here. Where only a bound is given, the exact number is not on record here.

B1: MMP13-19 peptide (amino acids 93-111 of SEQ ID NO: 1) (peptide)
peptide: ELGLPKEVKKISAAVHFED
modifications: also: fluorescent-labeled in binding assay, label and position not given here
Turning to B1, the fold binding compared to scrambled peptide in assay [1] turned out to be 8 fold. Also, the fold binding over scrambled peptide control in assay [2] was determined as 5 fold; in assay [3], 9 fold.

B2: MMP13-10 peptide (amino acids 17-26 of SEQ ID NO: 1) (peptide)
peptide: LRGETMIFKD
modifications: also: fluorescent label (label and position not given here)
As to B2, in assay [1], the fold binding compared to scrambled peptide was determined as 4 fold. The fold binding over scrambled peptide control in assay [2] and in assay [3] was < 2 fold throughout.
